The DeepSol protein solubility set

Test: soluble on expression in E. coli; label from the status in PepcDB or PDB records

Soluble on expression in E. coli, soluble:
MDKKPLNTLISATGLWMSRTGTIHKIKHHEVSRSKIYIEMACGDHLVVNNSRSSRTARALRHHKYRKTCKRCRVSDEDLNKFLTKANEDQTSVKVKVVSAPTRTKKAMPKSVARAPKPLENTEAAQAQPSGSKFSPAIPVSTQESVSVPASVSTSISSISTGATASALVKGNTNPITSMSAPVQASAPALTKSQTDRLEVLLNPKDEISLNSGKPFRELESELLSRRKKDLQQIYAEERENYLGKLEREITRFFVDRGFLEIKSPILIPLEYIERMGIDNDTELSKQIFRVDKNFCLRPMLAPNLYNYLRKLDRALPDPIKIFEIGPCYRKESDGKEHLEEFTMLNFCQMGSGCTRENLESIITDFLNHLGIDFKIVGDSCMVYGDTLDVMHGDLELSSAVVGPIPLDREWGIDKPWIGAGFGLERLLKVKHDFKNIKRAARSESYYNGISTNL
GSHMVPEPDLPHDLRHLNTEPMEIFRNSVKIEEIMPNGDPLLAGQNTVDEVYVSRPS
GHMYETIRYEVKGQVAWLTLNRPDQLNAFTEQMNAEVTKALKQAGADPNVRCVVITGAGRAFCAGEDLSGVTEEMDHGDVLRSRYAPMMKALHHLEKPVVAAVNGAAAGAGMSLALACDFRLLSEKASFAPAFIHVGLVPDAGHLYYLPRLVGRAKALELAVLGEKVTAEEAAALGLATKVIPLSDWEEEVKQFAERLSAMPTKAIGLIKRLLRESEETTFDRYLEREAECQRIAGLTSDHREGVKAFFEKRKPLFQGN
GSHMENYHAGPGISKSQLDDIADTPALYLWRKNAPVDTTKTKTLDLGTAFHCRVLELEEFSNRFIVAPEFNRRTNAGKEEEKAFLMECASTGKTVITAEEGRKIELMYQSVMALPLGQWLVESAGHAESSIYWEDPETGILCRCRPDKIIPEFHWIMDVKTTADIQRFKTAYYDYRYHVQDAFYSDGYEAQFGVQPTFVFLVASTTIECGRYPVEIFMMGEEAKLAGQQEYHRNLRTLSDCLNTDEWPAIKTLSLPRWAKEYAND
MQFLHILLLSILSLIFISSVQAVPSDQDIEALMGLQDQVNAFLGESNMSPEAKKKIEDMMAKKQAAIENSLGRK

Soluble on expression in E. coli, not soluble:
MNVKGFRFSAVEAAIKKPGRLDLALICSDAPAAVAAVYTTNKVKAAPVLLDMERTTSGTCRAVVVNSGNANACTGDRGMEDARETTSLVAERIGASEHEVLVCSTGVIGVPLPMERIRGGIPSLVAGLGSATLDQIAAAIMTTDTFPKLEARTGTAGGVGYTIAGIAKGAGMIMPNMATMLAFVVTDAAVDPQWLDRVFRRANDTSFNAITVDGDMSTNDTAIIMANGAAGNPVLSEGSEGAAEFAVLLEEVLLSLAKLIVKDGEGATKFVEVTVKGARSDADAKRAAMAVANSCLVKTAFFGQDANWGRIFAAVGYSGADVEPDRAELFFDDVRMVQGGVFAGGDAEARGTGVLRKKEFTVTVDLHLGDGRATVYTSDLSYDYVKINADYRTLEHHHHHH
MGSDKIHHHHHHMSKAPDFEGLAMFAKVAEERSFAAAARVLGLSVATVSRGVSRLEERLGARLFNRTSRRLALTDFGHRLAERASRLYRDAEDAENAARELSASPRGLVRLAVPMSFGLRWVAPLLPDFFKLYPDVSIDMHLSDAVVDLIGEGFDAALRIAVLPDSSLVARRLCSIAPFIVAAPSYLARHGRPSTPRDLDAHHCLGYAYRPRQDVWHFSNAAGDEEVVTPSGPLRVTNSDALVPTVLAGIAIAELPEFIASEYLADGRLQAILTDWTLPRGALYFVTPSARARPAKVEAVAGFMAAHLSRPSWQPINP
MAHHHHHHMLKVSSKEHYAEIKKKAEDSLGLVVHFSATWCEPCTAVNEHLTKQAAEYGDNVVFAEVDCGELGDVCEAEGVESVPFVAYFRTPLVGDDRRVERVADVAGAKFDQIDMNTHSLFGEKGGNRGSAEGLCHSGRLPALPHEAARGRNVHHRHPISSALRLYWSAV
MGSDKIHHHHHHLIQYAQAVMRHEAVAAIVAEIVARYQAIADDFELEASIMAAIEEELDQLPKLTFKNNDYLMAGFKARGEKLNAFLMTAVLNHEGIEATYGEPKSLGIVVTDHPNDAEVSRETYRNLATFRRPIGVLVVPGFYGYTSDDDIATFSRGGSDITGAILANGFHADLYENFTDVDGVAAADPRVVANPQMIREMTYREMRELSYGGFGVFHDEAILPAIAGQVPINLKNTNHPAAPGTMIVPEQHFVPKHAITGIVSSQHFGAIYLHRYLLNKEVGFTLKILQVLAHNGISYEHMPSGIDDLTIILDDRQLTEAKRKTICAEIQAAVHPDVLKWIDDYAIIMVVGEGMAQRTGLIQTILQPLATAGVHVSMINEGASQISLMLGTSRESANRAVKTIYNAFFIPINQRLEVH
